Legend:
[1] = molecular target: the molecule itself; assay: crystal structure; NcdT436S at 4.5 mg/ml incubated with 4 mM MgCl2 and 4 mM ATP, hanging drops at room temperature, 11.5% PEG 8K, 25 mM sodium-phosphate pH 6.26, 0.5 M NaCl; molecular replacement with PDB 1N6M; two chains (A, B) joined by the coiled-coil stalk
[2] = molecular target: microtubules (polymerized tubulin)

Row | K (m,MTs) of the microtubule-stimulated steady-state ATPase (0.5 μM motor, 1 mM MgATP, 0-2.5 μM microtubules) [2] [µM] | Binder | binding result [1]
1 |  | NcdT436S, nonfusion protein for crystallization (MGSM-H293-K700) (domain or fragment, Drosophila, N-terminal leader of the construct MGSM-H293-K700; kinesin-14 Ncd of Drosophila, residues H293-K700 (part of the coiled-coil stalk, neck, motor domain and C-terminus), with T436S in the P-loop; The printed mass of 93,692 Da fits two chains (dimer); In the crystal, chain A is visible from M292 to K671 and chain B from G290 to K674; also called kinesin-14 Ncd T436S; source: E. coli BL21(DE3)pLysS …) MGSMHAALSTEVVHLRQRTEELLRCNEQQAAELETCKEQLFQSNMERKELHNTVMDLRGNIRVFCRIRPPLESEENRMCCTWTYHDESTVELQSIDAQAKSKMGQQIFSFDQVFHPLSSQSDIFEMVSPLIQSALDGYNICIFAYGQSGSGKTYTMDGVPESVGVIPRTVDLLFDSIRGYRNLGWEYEIKATFLEIYNEVLYDLLSNEQKDMEIRMAKNNKNDIYVSNITEETVLDPNHLRHLMHTAKMNRATASTAGNERSSRSHAVTKLELIGRHAEKQEISVGSINLVDLAGSESPKTSTRMTETKNINRSLSELTNVILALLQKQDHIPYRNSKLTHLLMPSLGGNSKTLMFINVSPFQDCFQESVKSLRFAASVNSCKMTKAKRNRYLNNSVANSSTQSNNSGSFDK | binds
2 | 1.6 | wild-type GST/Ncd (GST/MC1) (domain or fragment) KTKYEKQTEDMGELESMPQQLEETQNKLIETESSLKNTQSDNECLQRQVKQHTAKIETITSTLGRTKEELSELQAIHEKVKTEHAALSTEVVHLRQRTEELLRCNEQQAAELETCKEQLFQSNMERKELHNTVMDLRGNIRVFCRIRPPLESEENRMCCTWTYHDESTVELQSIDAQAKSKMGQQIFSFDQVFHPLSSQSDIFEMVSPLIQSALDGYNICIFAYGQTGSGKTYTMDGVPESVGVIPRTVDLLFDSIRGYRNLGWEYEIKATFLEIYNEVLYDLLSNEQKDMEIRMAKNNKNDIYVSNITEETVLDPNHLRHLMHTAKMNRATASTAGNERSSRSHAVTKLELIGRHAEKQEISVGSINLVDLAGSESPKTSTRMTETKNINRSLSELTNVILALLQKQDHIPYRNSKLTHLLMPSLGGNSKTLMFINVSPFQDCFQESVKSLRFAASVNSCKMTKAKRNRYLNNSVANSSTQSNNSGSFDK | 
3 | 1.3 | GST/NcdT436S (GST-…-K210-K700) (domain or fragment) SDLVPRGSPVKTKYEKQTEDMGELESMPQQLEETQNKLIETESSLKNTQSDNECLQRQVKQHTAKIETITSTLGRTKEELSELQAIHEKVKTEHAALSTEVVHLRQRTEELLRCNEQQAAELETCKEQLFQSNMERKELHNTVMDLRGNIRVFCRIRPPLESEENRMCCTWTYHDESTVELQSIDAQAKSKMGQQIFSFDQVFHPLSSQSDIFEMVSPLIQSALDGYNICIFAYGQSGSGKTYTMDGVPESVGVIPRTVDLLFDSIRGYRNLGWEYEIKATFLEIYNEVLYDLLSNEQKDMEIRMAKNNKNDIYVSNITEETVLDPNHLRHLMHTAKMNRATASTAGNERSSRSHAVTKLELIGRHAEKQEISVGSINLVDLAGSESPKTSTRMTETKNINRSLSELTNVILALLQKQDHIPYRNSKLTHLLMPSLGGNSKTLMFINVSPFQDCFQESVKSLRFAASVNSCKMTKAKRNRYLNNSVANSSTQSNNSGSFDK | 

— article PMC2906495, “A kinesin motor in a force-producing conformation” (BMC Structural Biology, 2010)
